The target in assay [1] is T1, Plasma-derived FVIII light chain (UniProt P00451 1668-2351).
T1 construct: domain: light chain (a3-A3-C1-C2); Prepared from plasma as in the cited literature; Human by context (the peptides are said to cover human FVIII regions); Residue numbers count on mature FVIII, without the signal peptide; also called LCh; 80-kDa light chain (a3-A3-C1-C2)
T1 sequence (looked up): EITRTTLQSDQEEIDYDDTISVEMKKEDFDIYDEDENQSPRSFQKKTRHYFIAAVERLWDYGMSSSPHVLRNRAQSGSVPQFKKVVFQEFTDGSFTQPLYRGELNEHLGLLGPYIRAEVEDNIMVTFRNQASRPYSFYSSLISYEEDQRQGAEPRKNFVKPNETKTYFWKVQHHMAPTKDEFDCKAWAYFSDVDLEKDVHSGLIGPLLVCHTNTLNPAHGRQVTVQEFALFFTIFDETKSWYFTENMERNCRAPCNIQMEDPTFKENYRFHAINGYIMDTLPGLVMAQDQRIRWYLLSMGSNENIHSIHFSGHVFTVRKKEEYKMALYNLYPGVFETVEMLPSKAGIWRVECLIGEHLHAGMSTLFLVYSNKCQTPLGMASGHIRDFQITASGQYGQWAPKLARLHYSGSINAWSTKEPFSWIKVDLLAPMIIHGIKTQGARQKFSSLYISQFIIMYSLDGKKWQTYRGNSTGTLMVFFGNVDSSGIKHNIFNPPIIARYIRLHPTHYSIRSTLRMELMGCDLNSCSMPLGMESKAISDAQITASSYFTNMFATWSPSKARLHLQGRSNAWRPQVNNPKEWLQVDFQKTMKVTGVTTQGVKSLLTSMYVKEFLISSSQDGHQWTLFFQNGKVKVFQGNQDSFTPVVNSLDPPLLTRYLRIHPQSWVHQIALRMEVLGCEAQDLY
Nature of the assay: solid-phase competition: scFv KM33 (0-30 nM) against FVIII light chain (25 nM) binding to immobilised LRP cluster II (FIG. 5). On the procedure:
(§1) FIG. 5. […] Data represent the mean ±S.D. of three experiments.
(§2) Solid-phase Binding Assays—Recombinant LRP clusters II or IV (1 pmol/well) were adsorbed onto microtiter wells in 50 mM NaHCO₃ (pH 9.8) in a volume of 50 μl for 16 h at 4° C. Wells were blocked with 2% (w/v) HSA, 150 mM NaCl, 5 mM CaCl₂, and 50 mM Tris (pH 7.4) in a volume of 200 μl for 1 h at 37° C. […] Bound ligand was detected by incubating with peroxidase-conjugated monoclonal antibody CLB-CAg 12 in the same buffer for 15 min at 37° C. […] Residual FVIII binding was detected as described above.

Assay [2] deals with T1, Plasma-derived FVIII light chain. The assay is described as follows: solid-phase competition assay: FVIII light chain (25 nM) on immobilised LRP cluster II (1 pmol/well) in the presence of scFv KM33 (0-30 nM); detection with peroxidase-conjugated CLB-CAg 12. On the procedure: as §1, §2
Another assay has as its target T2, Factor Va light chain (human, UniProt P12259 1574-2224).
T2 construct: domain: FVa light chain; also called FVa light chain
T2 sequence (looked up): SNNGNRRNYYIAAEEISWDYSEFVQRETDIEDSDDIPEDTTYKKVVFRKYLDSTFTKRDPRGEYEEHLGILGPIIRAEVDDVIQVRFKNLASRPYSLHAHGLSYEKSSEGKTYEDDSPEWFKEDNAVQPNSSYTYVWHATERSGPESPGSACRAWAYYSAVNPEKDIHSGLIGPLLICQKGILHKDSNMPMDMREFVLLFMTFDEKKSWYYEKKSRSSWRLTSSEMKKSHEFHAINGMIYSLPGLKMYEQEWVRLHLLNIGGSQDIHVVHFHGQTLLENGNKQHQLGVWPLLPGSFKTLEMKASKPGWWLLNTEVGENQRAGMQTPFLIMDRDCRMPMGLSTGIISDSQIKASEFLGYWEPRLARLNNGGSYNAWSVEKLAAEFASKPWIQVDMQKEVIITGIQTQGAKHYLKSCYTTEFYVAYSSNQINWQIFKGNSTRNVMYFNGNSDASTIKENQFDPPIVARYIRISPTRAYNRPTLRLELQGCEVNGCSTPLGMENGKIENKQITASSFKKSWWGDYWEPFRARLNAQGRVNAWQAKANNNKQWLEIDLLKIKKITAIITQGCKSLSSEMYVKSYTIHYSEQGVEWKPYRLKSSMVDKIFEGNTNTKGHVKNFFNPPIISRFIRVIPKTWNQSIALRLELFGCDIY
Nature of the assay: SPR (BIAcore), FVa light chain immobilised at 76 fmol/mm2, LRP cluster II 100 nM as analyte. For orientation: Surface plasmon resonance follows binding to a sensor surface in real time, without labels.

In assay [3] the target is T3, Recombinant FVIII/FV^1811-1818 light chain chimera (UniProt P00451 1668-2351).
T3 construct: domain: light chain (a3-A3-C1-C2); The single substitutions were worked out from the two printed octapeptides; In the assays it was captured on immobilised scFv EL14
T3 sequence: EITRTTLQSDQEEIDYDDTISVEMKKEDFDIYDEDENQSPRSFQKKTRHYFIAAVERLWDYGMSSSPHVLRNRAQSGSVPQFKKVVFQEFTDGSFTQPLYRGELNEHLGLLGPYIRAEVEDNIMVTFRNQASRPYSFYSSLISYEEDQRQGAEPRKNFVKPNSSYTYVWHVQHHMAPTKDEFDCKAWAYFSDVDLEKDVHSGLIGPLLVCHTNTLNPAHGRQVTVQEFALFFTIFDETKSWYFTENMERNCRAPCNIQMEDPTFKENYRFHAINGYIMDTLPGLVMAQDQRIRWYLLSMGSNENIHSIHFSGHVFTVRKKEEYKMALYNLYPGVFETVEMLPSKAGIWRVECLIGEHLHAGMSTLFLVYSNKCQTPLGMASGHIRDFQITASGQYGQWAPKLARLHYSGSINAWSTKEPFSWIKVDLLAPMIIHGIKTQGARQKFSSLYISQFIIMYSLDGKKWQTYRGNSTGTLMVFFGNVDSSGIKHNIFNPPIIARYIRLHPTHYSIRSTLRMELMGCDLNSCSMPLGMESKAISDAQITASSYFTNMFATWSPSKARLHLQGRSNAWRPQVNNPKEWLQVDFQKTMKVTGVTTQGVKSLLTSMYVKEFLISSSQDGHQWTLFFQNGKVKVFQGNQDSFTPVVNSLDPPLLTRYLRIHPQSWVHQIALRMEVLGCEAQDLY
Nature of the assay: SPR (BIAcore), FVIII/FV1811-1818 light chain chimera captured at 20 fmol/mm2 on immobilised scFv EL14, scFv KM41 40 nM as analyte.
Experimental: Response is indicated as Resonance Units (RU) and is corrected for nonspecific binding.
(§3) Surface Plasmon Resonance—The kinetics of protein interactions was determined by surface plasmon resonance (SPR) analysis, employing a BIAcore™2000 biosensor system (Biacore AS, Uppsala, Sweden). […] One control flow-channel was routinely activated and blocked in the absence of protein. […] Dissociation was allowed for 2 min in the same buffer flow. Sensor-chips were regenerated using several pulses of either 100 mM H₃PO₄ or 20 mM EDTA, 1 M NaCl, and 50 mM Hepes (pH 7.4) at a flow rate of 20 μl/min. The association (kₒₙ) and dissociation (koff) rate constants were determined by using the BIAevaluation software 3.1 (Biacore AB, Uppsala, Sweden). Data were corrected for bulk refractive index changes and fitted by nonlinear regression analysis according to a two-site binding model. Equilibrium dissociation constants (kd) were calculated from the ratio koff/kₒₙ. The kd value for low-affinity interactions was estimated using steady-state affinity analysis by using BIAevaluation software.

Assay [4] has as its target T1, Plasma-derived FVIII light chain. Nature of the assay: solid-phase competition assay: FVIII light chain (25 nM) on immobilised LRP cluster II (1 pmol/well) in the presence of scFv KM41 (0-100 nM); detection with peroxidase-conjugated CLB-CAg 12. On the procedure:
FIG. 4. […] Data represent the mean ±S.D. of three experiments. […] Complexes were allowed to form for 30 min before SPR analysis.
as §2

What is called Ki is the equilibrium dissociation constant of an inhibitor or competing ligand from its target. Read a low Ki as a stronger hold on the target.

Experimental for Factor Va light chain: Response is indicated as Resonance Units (RU) and is corrected for nonspecific binding, which was less than 5% relative to coated channels.
as §3

B1: scFv KM33 (scFv)
scFv: EVQLVESGGGVVQPGRSLRLSCVDSGLTFSSYGMHWVRQAPGAGLEWVAVISYDGNDKYYADSVKGRFAISRDNAKNTLYLQMNSLTIEDTAVYYCAKDLIESNIAEAFWGQGTLVTVSSGGGGSGGGGSGGGGSDIQMTQSPSSLSASVGDTVTIACRASRDIRNDLAWYQQKPGKAPKLLIYATSRLQSGVPSRFSGSGSFTDFTLTINSLQPDDSATYYCLQDSDYPLTFGGGTKVDIKRAAAEQKLISEEDLNGAAHHHHHH
notes: Expressed in E. coli TG1
The molecule B1 registered an inhibition constant (Ki) in assay [1] of approximately 5 nM. Also, the “IC50 (read off the curve)” value in assay [2] is approximately 7 nM.

B2: Recombinant LRP cluster II (receptor, UniProt Q07954 805-1184, looked up)
chain: NKCRVNNGGCSSLCLATPGSRQCACAEDQVLDADGVTCLANPSYVPPPQCQPGEFACANSRCIQERWKCDGDNDCLDNSDEAPALCHQHTCPSDRFKCENNRCIPNRWLCDGDNDCGNSEDESNATCSARTCPPNQFSCASGRCIPISWTCDLDDDCGDRSDESASCAYPTCFPLTQFTCNNGRCININWRCDNDNDCGDNSDEAGCSHSCSSTQFKCNSGRCIPEHWTCDGDNDCGDYSDETHANCTNQATRPPGGCHTDEFQCRLDGLCIPLRWRCDGDTDCMDSSDEKSCEGVTHVCDPSVKFGCKDSARCISKAWVCDGDNDCEDNSDEENCESLACRPPSHPCANNTSVCLPPDKLCDGNDDCGDGSDEGELCDQ
notes: domain: cluster II
For the molecule B2, the binding result in the assay with Factor Va light chain was “no binding (tested: 100 nM)”.

B3: scFv KM41 (scFv)
scFv: QVQLLQSAADVKKPGASVKVSCTASGYIFTSYDIDWVRQATGQGLEWMGWMNPNSGNAGFAQKFKGRLTLTRDTSTSTAYMELRRLESEDTAVYYCARSTPHSYSGSGLPPTSDSWGQGTLVTVSSGGGGSGGGGSGGGGSEIVLTQSPGTLSLSPGERATLSCRASQSVSSSFLGWYQQKPGQAPRLLIYGASSRATGIPDRFSGSGSGTDFTLTISRLEPEDFAVYYCQQYGISPLTFGGGTKLEIKRAAAEQKLISEEDLNGAAHHHHHH
notes: Expressed in E. coli TG1
For the molecule B3, the binding result in assay [3] is “no binding (tested: 40 nM)”. In addition, the “IC50 (read off the curve)” value in assay [4] is approximately 7 nM.

For the origin of these results see patent US20080219983A1 (TRIMESTER CUSHION, published 2008).
